Laboratory results published in article doi:10.1101/2021.03.23.436624 (bioRxiv, 2021).

B1: Neisseria gonorrhoeae LptD (NgLptD) (natural protein, UniProt Q5F651 24-801, looked up)
chain: ADTVAAEEADGRVAEGGAQGASESAQASDLTLGSTCLFCSNESGSPERTEAAVQGSGEASVPEDYTRIVADRMEGQSKVKVRAEGSVIIERDGAVLNTDWADYDQSGDTVTVGDRFALQQDGTLIRGETLTYNLDQQTGEAHNVRMETEQGGRRLQSVSRTAEMLGEGRYKLTETQFNTCSAGDAGWYVKAASVEADRGKGIGVAKHAAFVFGGVPLFYTPWADFPLDGNRKSGLLVPSVSAGSDGVSLSVPYYFNLAPNFDATFAPGIIGERGATFDGQIRYLRPDYSGQTDLTWLPHDKKSGRNNRYQAKWQHRHDISDTLQAGVDFNQVSDSGYYRDFYGGEEIAGNVNLNRRVWLDYGGRAAGGSLNAGLSVQKYQTLANQSGYKDEPYAIMPRLSADWHKNAGRAQIGVSAQFTRFSHDGRQDGSRLVVYPGIKWDFSNSWGYVRPKLGLHATYYSLDSFGGKASRSVGRVLPVVNIDGGTTFERNTRLFGGGVVQTIEPRLFYNYIPAKSQNDLPNFDSSESSFGYGQLFRENLYYGNDRINAANSLSTAVQSRILDGATGEERFRAGIGQKFYFKDDAVMLDGSVGKNPRSRSDWVAFASGGIGGRFTLDSSIHYNQNDKRAEHYAVGAGYRPAPGKVLNARYKYGRNEKIYLQADGSYFYDKLSQLDLSAQWPLTRNLSAVVRYNYGFEAKKPIEMLAGAEYKSSCGCWGAGVYAQRYVTGENTYKNAVFFSLQLKDLSSVGRNPAGRMDVAVPGYIPAHSLSAGRNKRP
B2: Sybody 21 (Sb21) (VHH)
VHH: QVQLVESGGGLVQAGGSLRLSCAASGFPVKYEHMYWYRQAPGKEREWVAAINSAGNETHYADSVKGRFTISRDNAKNTVYLQMNSLKPEDTAVYYCNVKDIGWWAAYDYWGQGTQVTV

How the values were obtained:
cryo-EM structure = molecular target: the molecule itself; assay: cryo-EM structure
[1] = molecular target: N. gonorrhoeae LptD (1-801)-3C-His10 and LptE (1-159)-AVI complex, biotinylated (Neisseria gonorrhoeae) (UniProt Q5F651); assay: grating coupled interferometry

| Binder | binding result (cryo-EM structure) | Kd [1] [nM] |
| --- | --- | --- |
| B1 | binds |  |
| B2 |  | 10 |
